According to US20230227548A1 (published 2023):
Where a chain is given by its changes, count along the chain named. Names may count otherwise.

Experiments:
cyno GPRC5D [1] = target: T1, cyno GPRC5D (cyno, UniProt Q9NZD1 1-343 (human entry)); test: FACS, cyno GPRC5D cells, 1 ug/ml
T1 construct: on transfected HEK293F or Daudi cells; also called cynomolgus monkey GPRC5D
T1 chain: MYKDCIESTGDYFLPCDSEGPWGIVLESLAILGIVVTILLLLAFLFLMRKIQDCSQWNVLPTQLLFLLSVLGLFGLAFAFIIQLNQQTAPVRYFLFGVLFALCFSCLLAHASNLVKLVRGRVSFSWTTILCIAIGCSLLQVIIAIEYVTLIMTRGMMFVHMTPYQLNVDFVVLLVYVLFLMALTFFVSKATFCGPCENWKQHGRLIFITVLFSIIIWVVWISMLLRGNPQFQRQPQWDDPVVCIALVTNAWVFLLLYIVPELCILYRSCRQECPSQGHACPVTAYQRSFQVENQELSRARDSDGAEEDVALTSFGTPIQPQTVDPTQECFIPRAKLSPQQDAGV

human GPRC5D [2] = target: T2, human GPRC5D (human, UniProt Q9NZD1 1-345); test: FACS, human GPRC5D cells
T2 construct: on transfected HEK293 or RBL cells, or endogenous on MM1R, H929, OPM2, LP-1, JIM3 and patient plasma cells; also called G-protein coupled receptor family C group 5 member D; hGPRC5D
T2 sequence (Q9NZD1 whole entry): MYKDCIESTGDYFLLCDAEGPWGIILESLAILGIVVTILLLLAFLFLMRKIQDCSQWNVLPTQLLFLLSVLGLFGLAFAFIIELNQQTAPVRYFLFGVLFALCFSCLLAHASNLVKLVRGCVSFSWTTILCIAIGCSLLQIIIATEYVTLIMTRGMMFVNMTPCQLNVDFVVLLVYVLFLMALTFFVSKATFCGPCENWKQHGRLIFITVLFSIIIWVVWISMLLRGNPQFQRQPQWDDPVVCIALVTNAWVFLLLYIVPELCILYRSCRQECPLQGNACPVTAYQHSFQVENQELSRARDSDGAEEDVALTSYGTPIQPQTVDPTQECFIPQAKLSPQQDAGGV

human GPRC5D [3] = target: T2, human GPRC5D; test: cell-based or functional assay
human GPRC5D [4] = target: T2, human GPRC5D; test: cell-based or functional assay; remark: listed apart in the source
human GPRC5D [5] = target: T2, human GPRC5D; test: cell-based or functional assay; remark: listed apart in the source
human GPRC5D [6] = target: T2, human GPRC5D; test: FACS, MM patient MM303BM bone marrow MNCs (plasma cells)
human GPRC5D [7] = target: T2, human GPRC5D; test: FACS, MM patient MM305BM bone marrow MNCs (plasma cells)
cyno GPRC5D [8] = target: T1, cyno GPRC5D; test: cell-based or functional assay
cyno GPRC5D [9] = target: T1, cyno GPRC5D; test: cell-based or functional assay

B1: GC5B163 (antibody, V domains shown)
VH: EVQLVQSGAEVKKPGESLKISCKGSGYSFTSYWIGWVRQMPGKGLEWMGIIYPGDSDTRYSPSFQGQVTISADKSISTAYLQWSSLKASDTAMYYCARVYSFGGRHKALFDYWGQGTLVTVSS
VL: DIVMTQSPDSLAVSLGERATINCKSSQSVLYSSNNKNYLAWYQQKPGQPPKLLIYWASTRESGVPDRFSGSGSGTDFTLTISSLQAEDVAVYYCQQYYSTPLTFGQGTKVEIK
MFI (cyno GPRC5D [1]): 22000

B2: GC5B496 (antibody, V domains shown)
VH: B1 VH with W33Y
VL: EIVLTQSPATLSLSPGERATLSCRASQSVSSYLAWYQQKPGQAPRLLIYDASNRATGIPARFSGSGSGTDFTLTISSLEPEDFAVYYCQQRSNWPLTFGQGTKVEIK
notes: GC5B164 PTM variant, Hc GC5H253
binding result (human GPRC5D [2]): binds

B3: GC5B502 (antibody, V domains shown)
VH: B1 VH with D55S
VL: B2 VL
notes: GC5B164 PTM variant, Hc GC5H247
binding result (human GPRC5D [2]): binds

B4: GC5B503 (antibody, V domains shown)
VH: B1 VH with D55K
VL: B2 VL
notes: GC5B164 PTM variant, Hc GC5H246
binding result (human GPRC5D [2]): binds

B5: GC5B504 (antibody, V domains shown)
VH: B1 VH with D55E
VL: B2 VL
notes: GC5B164 PTM variant, Hc GC5H245
binding result (human GPRC5D [2]): binds

B6: GC5B505 (antibody, V domains shown)
VH: B1 VH with D55Y
VL: B2 VL
notes: GC5B164 PTM variant, Hc GC5H244
binding result (human GPRC5D [2]): binds

B7: GC5B495 (antibody, V domains shown)
VH: B1 VH with W33A, D55Y
VL: B2 VL
notes: GC5B164 PTM variant, Hc GC5H254
binding result (human GPRC5D [2]): binds

B8: GC5B493 (antibody, V domains shown)
VH: B1 VH with W33F, D55Y
VL: B2 VL
notes: GC5B164 PTM variant, Hc GC5H256
binding result (human GPRC5D [2]): binds

B9: GC5B498 (antibody, V domains shown)
VH: B1 VH with W33F
VL: B2 VL
notes: GC5B164 PTM variant, Hc GC5H251
binding result (human GPRC5D [2]): binds

B10: GC5B494 (antibody, V domains shown)
VH: B1 VH with W33G, D55Y
VL: B2 VL
notes: GC5B164 PTM variant, Hc GC5H255
binding result (human GPRC5D [2]): binds

B11: GC5B501 (antibody, V domains shown)
VH: B1 VH with D55A
VL: B2 VL
notes: GC5B164 PTM variant, Hc GC5H248
binding result (human GPRC5D [2]): binds

B12: GC5B497 (antibody, V domains shown)
VH: B1 VH with W33V
VL: B2 VL
notes: GC5B164 PTM variant, Hc GC5H252
binding result (human GPRC5D [2]): binds

B13: GC5B252 (antibody, V domains shown)
VH: QVQLVQSGAEVKKPGSSVKVSCKASGGTFSSYGISWVRQAPGQGLEWMGGIIPIFGNINYAQKFQGRVTITADESTSTAYMELSSLRSEDTAVYYCARVSRRFKRFAYYFDYWGQGTLVTVSS
VL: B2 VL
MFI (cyno GPRC5D [1]): 63300

B14: GCDB32 (bispecific antibody, IgG4, V domains shown)
VH 1: EVQLVESGGGLVQPGGSLRLSCAASGFTFNTYAMNWVRQAPGKGLEWVARIRSKYNNYATYYAASVKGRFTISRDDSKNSLYLQMNSLKTEDTAVYYCARHGNFGNSYVSWFAYWGQGTLVTVSS
VL 1: QTVVTQEPSLTVSPGGTVTLTCRSSTGAVTTSNYANWVQQKPGQAPRGLIGGTNKRAPGTPARFSGSLLGGKAALTLSGVQPEDEAEYYCALWYSNLWVFGGGTKLTVL
VH 2: not shown
VL 2: not shown
notes: IgG4-PAA by Fab arm exchange; first VH/VL = CD3B219 arm (IgG4 S228P, L234A, L235A, F405L, R409K); also called GC5B81 x CD3B219
T-cell mediated cytotoxicity EC50, H929 (n = 5) (human GPRC5D [3]): 0.39 nM | T-cell mediated cytotoxicity EC50, MM1R (n = 3) (human GPRC5D [3]): 0.12 nM | T-cell redirection cytotoxicity EC50, human GPRC5D HEK cells (human GPRC5D [4]): 0.04 nM | T-cell mediated cytotoxicity EC50, H929 cells (human GPRC5D [5]): 0.45 nM | T-cell mediated cytotoxicity EC50, LP-1 (human GPRC5D [5]): 1.02 nM | T-cell mediated cytotoxicity EC50, MM1R (human GPRC5D [5]): 0.04 nM | T-cell mediated cytotoxicity EC50, OPM2 (human GPRC5D [5]): 0.98 nM | EC50 (human GPRC5D [6]): 16.1 nM | EC50 (human GPRC5D [7]): 70.4 nM

B15: GCDB45 (bispecific antibody, V domains shown)
VH 1: B14 VH 1
VL 1: B14 VL 1
VH 2: EVQLVQSGAEVKKPGESLKISCKGSGYSFTSYWIGWVRQMPGKGLEWMGIIYPGDSDTRYSPSFQGQVTISADKSISTAYLQWSSLKASDTAMYYCARIGFYGRSFRIFDYWGQGTLVTVSS
VL 2: B2 VL
T-cell mediated cytotoxicity EC50, H929 (n = 5) (human GPRC5D [3]): 2.25 nM | T-cell mediated cytotoxicity EC50, MM1R (n = 3) (human GPRC5D [3]): 0.91 nM | T cell mediated target cell killing, Cyno GPRC5D EC50 (cyno GPRC5D [8]): 2.82 nM

B16: GCDB72 (bispecific antibody, IgG4, V domains shown)
VH 1: B14 VH 1
VL 1: B14 VL 1
VH 2: QVQLVQSGAEVKKPGASVKVSCKASGYSFTGYTMNWVRQAPGQGLEWMGLINPYNSDTNYAQKLQGRVTMTTDTSTSTAYMELRSLRSDDTAVYYCARVALRVALDYWGQGTLVTVSS
VL 2: DIQMTQSPSSLSASVGDRVTITCKASQNVATHVGWYQQKPGKAPKRLIYSASYRYSGVPSRFSGSGSGTEFTLTISNLQPEDFATYYCQQYNRYPYTFGQGTKLEIK
T-cell redirection cytotoxicity EC50, cyno GPRC5D HEK cells (cyno GPRC5D [9]): 3.41 nM

B17: GCDB41 (bispecific antibody, V domains shown)
VH 1: B14 VH 1
VL 1: B14 VL 1
VH 2: B13 VH
VL 2: not shown
T-cell mediated cytotoxicity EC50, MM1R (n = 3) (human GPRC5D [3]): 2.58 nM

B18: GCDB44 (bispecific antibody, V domains shown)
VH 1: B14 VH 1
VL 1: B14 VL 1
VH 2: not shown
VL 2: B2 VL
T-cell mediated cytotoxicity EC50, H929 (n = 5) (human GPRC5D [3]): 10.3 nM | T-cell mediated cytotoxicity EC50, MM1R (n = 3) (human GPRC5D [3]): 4.41 nM

B19: GCDB43 (bispecific antibody, V domains shown)
VH 1: B14 VH 1
VL 1: B14 VL 1
VH 2: not shown
VL 2: not shown
T-cell mediated cytotoxicity EC50, H929 (n = 5) (human GPRC5D [3]): 0.36 nM | T-cell mediated cytotoxicity EC50, MM1R (n = 3) (human GPRC5D [3]): 0.21 nM

B20: GCDB35 (bispecific antibody, V domains shown)
VH 1: B14 VH 1
VL 1: B14 VL 1
VH 2: B1 VH
VL 2: B2 VL
T-cell mediated cytotoxicity EC50, H929 (n = 5) (human GPRC5D [3]): 1.39 nM | T-cell mediated cytotoxicity EC50, MM1R (n = 3) (human GPRC5D [3]): 0.74 nM

B21: GCDB40 (bispecific antibody, V domains shown)
VH 1: B14 VH 1
VL 1: B14 VL 1
VH 2: EVQLLESGGGLVQPGGSLRLSCAASGFTFSDYGMHWVRQAPGKGLEWVSAIKYSGGSTYYADSVKGRFTISRDNSKNTLYLQMNSLRAEDTAVYYCAKRAESGPGLDYWGQGTLVTVSS
VL 2: not shown
T-cell mediated cytotoxicity EC50, H929 (n = 5) (human GPRC5D [3]): 1.2 nM | T-cell mediated cytotoxicity EC50, MM1R (n = 3) (human GPRC5D [3]): 0.52 nM

B22: GCDB53 (bispecific antibody, IgG4, V domains shown)
VH 1: B14 VH 1
VL 1: B14 VL 1
VH 2: not shown
VL 2: not shown
notes: IgG4-PAA; first VH/VL = CD3B219 arm (adds F405L, R409K), second = GC5B465 arm; also called GC5B465 x CD3B219
T-cell redirection cytotoxicity EC50, human GPRC5D HEK cells (human GPRC5D [4]): 0.08 nM | T-cell redirection cytotoxicity EC50, cyno GPRC5D HEK cells (cyno GPRC5D [9]): 0.36 nM | T-cell mediated cytotoxicity EC50, H929 cells (human GPRC5D [5]): 0.69 nM | T-cell mediated cytotoxicity EC50, LP-1 (human GPRC5D [5]): 1.58 nM | T-cell mediated cytotoxicity EC50, MM1R (human GPRC5D [5]): 0.28 nM | T-cell mediated cytotoxicity EC50, OPM2 (human GPRC5D [5]): 2.83 nM | EC50 (human GPRC5D [6]): 3.98 nM | EC50 (human GPRC5D [7]): 10.2 nM

B23: GCDB61 (bispecific antibody, IgG4, V domains shown)
VH 1: B14 VH 1
VL 1: B14 VL 1
VH 2: B1 VH with W33F, D55K
VL 2: B2 VL
notes: IgG4-PAA; first VH/VL = CD3B219 arm (adds F405L, R409K), second = GC5B483 arm; also called GC5B483 x CD3B219
T-cell redirection cytotoxicity EC50, human GPRC5D HEK cells (human GPRC5D [4]): 0.03 nM | T-cell redirection cytotoxicity EC50, cyno GPRC5D HEK cells (cyno GPRC5D [9]): 1.22 nM | T-cell mediated cytotoxicity EC50, H929 cells (human GPRC5D [5]): 0.39 nM | T-cell mediated cytotoxicity EC50, LP-1 (human GPRC5D [5]): 1.67 nM | T-cell mediated cytotoxicity EC50, MM1R (human GPRC5D [5]): 0.06 nM | T-cell mediated cytotoxicity EC50, OPM2 (human GPRC5D [5]): 1.46 nM | EC50 (human GPRC5D [6]): 5.53 nM | EC50 (human GPRC5D [7]): 6.93 nM
